One assay concerns Jurkat cells. Briefly: Tacrolimus dose response of FKBP13-AcGFP-mCherry constructs stably transduced into Jurkat cells, GFP MFI by flow cytometry. It is filed as cell-based. Set-up: Basal: unit not given here. The conditions noted are these: for basal AcGFP expression: absence of tacrolimus. Summed up: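 Jurkat E6-1 cells lentivirally transduced with FKBP13-AcGFP-mCherry constructs to 10-25% mCherry+ (day 5) were dosed with tacrolimus. GFP geometric MFI in mCherry+ cells was measured by flow cytometry and fitted to dose-response curves.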
A general note: In flow cytometry, cells or beads pass a laser one at a time.

A short description of assay [1]: Example 4: dose response of FKBP constructs 160-255, Ec50, Ec90 and fold change (raw and normalized to mCherry). It is filed as cell-based. The conditions noted are these: for FC (fold change): fold change during initial analysis. The protocol: Additional experiments were performed for constructs FKBP-160-292.
Where [2] appears, read: FKBP constructs 160-255, not normalized, read-out: EC90.
The mark [3] stands for this setting: normalized to mCherry, read-out: EC90 (Norm).

Read-outs that look alike come from different tables or passages of the source.

B1: FKBP-195: combinatorial FKBP13 mutant construct of Table 10, carries K135Y (protein)
chain: HCPIKSRKGDVLHMHYTGKLEDGTEFDSSLPRNQPFVFSLGTGERIKGWDQGLLGMCEGEKRKLVIPSELGYGERGWPPKIPGGATLVFEVELLYIER
modifications: Description of sequence: Construct Name: FKBP-195; Mutation(s): Q72R Q84E A117W V85R DRD K135Y
Broadly, the EC90 is the point of the concentration-response curve where the effect stands at 90%. On to B1, for which the Basal in the assay on Jurkat cells (FIG. 39) is on record as 68.4; in the assay with Jurkat cells (FIG. 50) it was 75.5. The FC in the assay on Jurkat cells (FIG. 39) was 90; in the assay with Jurkat cells (FIG. 50) it was 61.07; in the assay on Jurkat cells (tacrolimus, FIG. 35), 89.61; with Jurkat cells (tacrolimus, FIG. 36) it was 89.61; in the assay on Jurkat cells (tacrolimus, FIG. 37) it was 89.61; in the assay with Jurkat cells (tacrolimus, FIG. 38), 89.61. Also, the FC in the assay with Jurkat cells (tacrolimus, FIGS. 29 and 30) came out at 66; in the assay with Jurkat cells (tacrolimus, FIGS. 31 and 32), 66; with Jurkat cells (tacrolimus, FIGS. 33 and 34) it was 66. For the same molecule, the Peak is 5808 with Jurkat cells (FIG. 39); 4362 with Jurkat cells (tacrolimus, FIG. 35); 4362 in the assay with Jurkat cells (tacrolimus, FIG. 36); 4362 in the assay with Jurkat cells (tacrolimus, FIG. 37); 4362 in the assay with Jurkat cells (tacrolimus, FIG. 38). The “At 10 uM” value with Jurkat cells (FIG. 50) is listed as 4611. For the same molecule, in the assay on Jurkat cells, the “basal AcGFP expression” value is “lowest basal expression”. Moreover, the 90% effect concentration (EC90) in assay [1] (setting [2]) was determined as 165 nM; in assay [1] (setting [3]) it was 140 nM. Also, the “FC (fold change)” value in assay [1] was found to be 50.1.

B2: FKBP-201: FKBP13 DRD-AcGFP construct of Table 10 (protein)
chain: HCPIKSRKGDVLLMHYTGKLEDGTEFDSSLPRNQPFVFSLGTGERIKGWDQGLLGMCEGEKRKLVIPSELGYGERGWPPKIPGGATLVFEVELLKIER
modifications: Description of sequence: Construct Name: FKBP-201; Mutation(s): Q72R Q84E A117W V85R DRD H53L
For the molecule B2, the EC90 came to 144 nM in assay [1] (setting [2]) and 153 nM in assay [1] (setting [3]). Moreover, the “FC (fold change)” value in assay [1] is 33.1.

B3: FKBP-199: FKBP13 DRD-AcGFP construct of Table 10 (protein)
chain: HCPIKSRKGDVLHMHYTGKLEDGTEFDSSLPRNQPFVFSLGTGERIKGWDQGLLGMCLGEKRKLVIPSELGYGERGWPPKIPGGATLVFEVELLKIER
modifications: Description of sequence: Construct Name: FKBP-199; Mutation(s): Q72R Q84E A117W V85R DRD E98L
On to B3, for which the EC90 is 71.7 nM in assay [1] (setting [2]) and 67.5 nM in assay [1] (setting [3]). Besides, the “FC (fold change)” value in assay [1] was 27.1.

B4: FKBP-161 (protein)
chain: HCPIKSRKGDVLHSHYTGKLEDGTEFDSSLPRNQPFVFSLGTGERIKGWDQGLLGMCEGEKRKLVIPSELGYGERGWPPKIPGGATLVFEVELLKIER
modifications: Description of sequence: Construct Name: FKBP-161; Mutation(s): Q72R Q84E A117W DRD M54S V85R
In the case of B4, the EC90 in assay [1] (setting [2]) was 512 nM; in assay [1] (setting [3]), 541 nM. Also, the “FC (fold change)” value in assay [1] was 32.3.

B5: FKBP-191: FKBP13 DRD-AcGFP construct of Table 10 (protein)
chain: HCPIKSRKSDVLHMHYTGKLEDGTEFDSSLPRNQPFVFSLGTGERIKGWDQGLLGMCEGEKRKLVIPSELGYGERGWPPKIPGGATLVFEVELLKIER
modifications: Description of sequence: Construct Name: FKBP-191; Mutation(s): Q72R Q84E A117W V85R DRD G49S
In the case of B5, the figures for the EC90 in assay [1] (setting [2]) and in assay [1] (setting [3]) were 367 nM and 391 nM, respectively. In assay [1], the “FC (fold change)” value is reported as 50.6.

B6: FKBP-228: combinatorial FKBP13 mutant construct of Table 10 (protein)
chain: HCPIKSRKGDVLHMHYTGKLEDGTEFDSSLPRNQPFVFSLGTGERIKGWDQGLLGMCEGEKRKLVIPSELGYGERGWPPKIPGGATLVFEVELLKIRR
modifications: Description of sequence: Construct Name: FKBP-228; Mutation(s): Q72R Q84E A117W V85R DRD E137R
As to B6, the Basal in the assay on Jurkat cells (FIG. 41) was 112; in the assay on Jurkat cells (FIG. 42, BR1 (Biorep 1)), 103; in the assay with Jurkat cells (FIG. 42, BR2 (Biorep 2)) it was 99.6. The FC in the assay with Jurkat cells (FIG. 41) came to 85; with Jurkat cells (FIG. 42, BR1 (Biorep 1)), 55.15; in the assay on Jurkat cells (FIG. 42, BR2 (Biorep 2)), 60.71. The molecule further came in with a Peak in the assay with Jurkat cells (FIG. 41) of 8896. Moreover, the “At 10 uM” value stood at 5680 with Jurkat cells (FIG. 42, BR1 (Biorep 1)) and 6047 in the assay on Jurkat cells (FIG. 42, BR2 (Biorep 2)). The “basal AcGFP expression” value in the assay on Jurkat cells is “lowest basal expression”. Further, the 90% effect concentration (EC90) was 116 nM in assay [1] (setting [2]) and 124 nM in assay [1] (setting [3]). Moreover, in assay [1], the “FC (fold change)” value is listed as 55.1.

B7: FKBP-202 (protein)
chain: HCPIKSRKSDVLHAHYTGKLEDGTEFDSSLPRNQPFVFSLGTGERIKGWDQGLLGMCEGEKRKLVIPSELGYGERGWPPKIPGGATLVFEVELLKIER
modifications: Description of sequence: Construct Name: FKBP-202; Mutation(s): Q72R Q84E A117W V85R DRD M54A G49S
B7: the results for the EC90 in assay [1] (setting [2]) and in assay [1] (setting [3]) were 1010 nM and 1060 nM, respectively. The “FC (fold change)” value in assay [1] came to 46.2.

B8: FKBP-192: FKBP13 DRD-AcGFP construct of Table 10 (protein)
chain: HCPIKSRKGDVLHMHYTGKLEDGTEFDSSLPRNQLFVFSLGTGERIKGWDQGLLGMCEGEKRKLVIPSELGYGERGWPPKIPGGATLVFEVELLKIER
modifications: Description of sequence: Construct Name: FKBP-192; Mutation(s): Q72R Q84E A117W V85R DRD P75L
With B8, the EC90 in assay [1] (setting [2]) was determined as 230 nM; in assay [1] (setting [3]) it was 228 nM. Further, the “FC (fold change)” value in assay [1] worked out at 55.0.

B9: FKBP-194 (protein)
chain: HCPIKSRKGDVLHMHYTGKLEDGTEFDSSLPRNQPFVFSLGTGERIKGWDQGLLGMCEGEKRKVVIPSELGYGERGWPPKIPGGATLVFEVELLKIER
modifications: Description of sequence: Construct Name: FKBP-194; Mutation(s): Q72R Q84E A117W V85R DRD L104V
For the molecule B9, the 90% effect concentration (EC90) in assay [1] (setting [2]) came out at 102 nM; in assay [1] (setting [3]) it was 122 nM. Further, in assay [1], the “FC (fold change)” value worked out at 24.8.

B10: FKBP-196 (protein)
chain: HCPIKSRKGDVLHMHYTGKLEDGTEFDSSLPRNQPFVFSLGTGERIKGWDQGLLGMCEGEKRKLVIPSELGYGERGWPPKIPGGATLVFEVELLKVER
modifications: Description of sequence: Construct Name: FKBP-196; Mutation(s): Q72R Q84E A117W V85R DRD I136V
Regarding B10, the 90% effect concentration (EC90) was found to be 115 nM in assay [1] (setting [2]) and 113 nM in assay [1] (setting [3]). The “FC (fold change)” value in assay [1] is reported as 34.7.

B11: FKBP-198: FKBP13 DRD-AcGFP construct of Table 10 (protein)
chain: HCPIKSRKGDVLHMHYTGKLEDGTEFDSSLPRNQPFVFSLGTGERIKGWDQGLLGMCEGEWRKLVIPSELGYGERGWPPKIPGGATLVFEVELLKIER
modifications: Description of sequence: Construct Name: FKBP-198; Mutation(s): Q72R Q84E A117W V85R DRD K101W
Consider B11, for which the 90% effect concentration (EC90) in assay [1] (setting [2]) is 253 nM; in assay [1] (setting [3]), 274 nM. For the same molecule, the “FC (fold change)” value in assay [1] amounted to 54.3.

B12: FKBP-193 (protein)
chain: HCPIKSRKGDVLHMHYTGKLEDGTEFDSSLPRNQPFVFSLGTGERIKGWAQGLLGMCEGEKRKLVIPSELGYGERGWPPKIPGGATLVFEVELLKIER
modifications: Description of sequence: Construct Name: FKBP-193; Mutation(s): Q72R Q84E A117W V85R DRD D90A
For the molecule B12, the values for the concentration for an effect of 90% (EC90) in assay [1] (setting [2]) and in assay [1] (setting [3]) were 13000 nM and 15000 nM, respectively. The “FC (fold change)” value in assay [1] is 37.8.

B13: FKBP-200: FKBP13 DRD-AcGFP construct of Table 10 (protein)
chain: HCPIKSRKGDVLHMHYTGKLESGTEFDSSLPRNQPFVFSLGTGERIKGWDQGLLGMCEGEKRKLVIPSELGYGERGWPPKIPGGATLVFEVELLKIER
modifications: Description of sequence: Construct Name: FKBP-200; Mutation(s): Q72R Q84E A117W V85R DRD D62S
Turning to B13, the concentration for an effect of 90% (EC90) turned out to be 160 nM in assay [1] (setting [2]) and 150 nM in assay [1] (setting [3]). Further, the “FC (fold change)” value in assay [1] was found to be 33.9.
